Measured values published in article PMC12154015, “A Novel Approach for the Activity Assessment of L-Asparaginase Formulations When Dealing with Complex Biological Samples” (International Journal of Molecular Sciences, 2025).

B1: RrA; Rhodospirillum rubrum type I L-ASNase (Rhodospirillum rubrum ATCC 11170) (protein)
chain: MAVSPSPLRIFTAGGTIDKDYRLEENGLVVGDPFVAEVLKTARLAGAVSIVALSRKDSLDFTEADREAIGRAVGQAVEDHILLTHGTDTMVETARYLGGLPELAGKTVVLSGAMVPGRVGGSDAAFNIGFACAAALMLAPGVYIAMHGKVFDPAKTRKNRGLGRFEPIDDQE
notes: recombinant, native (unconjugated); 172 residues, monomer 18 kDa; tetramer/dimer
B2: EcA; E. coli L-ASNase (Veropharm) (Escherichia coli K-12) (protein)
chain: LPNITILATGGTIAGGGDSATKSNYTVGKVGVENLVNAVPQLKDIANVKGEQVVNIGSQDMNDNVWLTLAKKINTDCDKTDGFVITHGTDTMEETAYFLDLTVKCDKPVVMVGAMRPSTSMSADGPFNLYNAVVTAADKASANRGVLVVMNDTVLDGRDVTKTNTTDVATFKSVNYGPLGYIHNGKIDYQRTPARKHTSDTPFDVSKLNELPKVGIVYNYANASDLPAKALVDAGYDGIVSAGVGNGNLYKSVFDTLATAAKTGTAVVRSSRVPTGATTQDAEVDDAKYGFVASGTLNPQKARVLLQLALTQTKDPQQIQQIFNQY
notes: commercial native enzyme (Veropharm), unconjugated; monomer 37 kDa, 348 residues as printed (precursor length); tetramer

How the values were obtained:
Experiment in all cases: purified protein
[1] = substrate: NC(=O)C[C@H](N)C(=O)O; format: biochemical, Rhodospirillum rubrum; conditions: PBS 0.01 M, pH 7.4, 37 °C, [S]0 = 10 mM
[2] = substrate: Cc1cc(=O)oc2cc(NC(=O)C[C@H](N)C(=O)O)ccc12; format: biochemical, Rhodospirillum rubrum; conditions: 37 °C, pH 7.4, table heading says in bovine serum, [S]0 = 1 mM
[3] = substrate: Cc1cc(=O)oc2cc(NC(=O)C[C@H](N)C(=O)O)ccc12; format: biochemical, Escherichia coli; conditions: 37 °C, pH 7.4, table heading says in bovine serum, [S]0 = 1 mM
[4] = substrate: NC(=O)C[C@H](N)C(=O)O; conditions: PBS 0.01 M, pH 7.4, 37 °C, [S]0 = 10 mM

Protein	Km [1] [µM]	Km [2] [µM]	Km [3] [µM]	Km [4] [µM]
B1	4000 ± 300	4000 ± 300		
B2			20 ± 3	20 ± 3
